Data on 3 compounds can be found in patent US20240197839A1, “Recombinant Human Acid Alpha-Glucosidase and Uses Thereof” (Amicus Therapeutics, Inc., priority 2021, published 2024).

Data set [1] addresses T1, CIMPR (Homo sapiens, UniProt P11717). The data set can be described thus: CIMPR affinity chromatography (bound vs unbound rhGAA by GAA activity). The format is binding. The note with it: CIMPR affinity column, fraction of total enzyme by GAA activity. The source says: Multiple batches of the rhGAA according to the disclosure were produced in shake flasks and in perfusion bioreactors using CHO cell line GA-ATB200, the product of which is referred to as “ATB200.” Weak anion exchange (“WAX”) liquid chromatography was used to fractionate ATB200 rhGAA according to terminal phosphate and sialic acid. Elution profiles were generated by eluting the ERT with increasing amount of salt. The profiles were monitored by UV (A280 nm).
To evaluate the ability of the conventional rhGAAs in MYOZYME® and LUMIZYME® to interact with the CIMPR, the two conventional rhGAA preparations were injected onto a CIMPR affinity column (which binds rhGAA having M6P groups) and the flow through collected. The bound material was eluted with a free M6 gradient. Fractions were collected in 96-well plate and GAA activity assayed by 4MU-α-glucosidase substrate. The relative amounts of unbound (flow through) and bound (M6P eluted) rhGAA were determined based on GAA activity and reported as the fraction of total enzyme. […] Indeed, only 27% of the rhGAA in MYOZYME® and 22% of the rhGAA in LUMIZYME® contained M6P that can be productive to target it to the CIMPR on muscle cells.

The next data set has as its system Gaa KO mice. The data set can be described thus: single fiber analysis (LAMP1/LC3 co-immunofluorescence, white gastrocnemius). Format: in vivo. The text has this: FIG. 17 depicts co-immunofluorescent staining of LAMP1 (green) (see for example, “B”) and LC3 (red) (see, for example, “A”) in single fibers isolated from the white gastrocnemius of Gaa KO mice treated with a vehicle, alglucosidase alfa, or ATB200. “C” depicts clearance of autophagic debris and absence of enlarged lysosome. A minimum of 30 fibers were examined from each animal.
As a result, a significant portion of muscle fibers analyzed (36-60%) from ATB200-treated mice appeared normal or near-normal.

The target in data set [2] is T1, CIMPR. The data set can be described thus: CIMPR plate binding assay. Here is the method: In addition to having a greater percentage of rhGAA that can bind to the CIMPR, it is important to understand the quality of that interaction. LUMIZYME® and ATB200 receptor binding was determined using a CIMPR plate binding assay. Briefly, CIMPR-coated plates were used to capture GAA. Varying concentrations of rhGAA were applied to the immobilized receptor and unbound rhGAA was washed off. The amount of remaining rhGAA was determined by GAA activity. […] For LUMIZYME®, there is on average only 10% of molecules having a bis-phosphorylated N-glycan. In contrast, on average every rhGAA molecule in ATB200 has at least one bis-phosphorylated N-glycan.
N-glycan analysis via MALDI-TOF mass spectrometry confirmed that on average each ATB200 molecule contains at least one natural bis-M6P N-glycan structure.

Data set [3] relates to normal and Pompe fibroblast cell lines. As to the kind of experiment: cellular uptake of rhGAA in fibroblasts (internalized GAA by 4MU-α-Glucoside hydrolysis). The format is cell-based. As to the method:
The relative cellular uptake of ATB200 and LUMIZYME® rhGAA were compared using normal and Pompe fibroblast cell lines. Comparisons involved 5-100 nM of ATB200 according to the disclosure with 10-500 nM conventional rhGAA product LUMIZYME®. After 16-hr incubation, external rhGAA was inactivated with TRIS base and cells were washed 3-times with PBS prior to harvest. Internalized GAA measured by 4MU-α-Glucoside hydrolysis and was graphed relative to total cellular protein and the results appear in FIGS. 11A-11C.

A short description of data set [4]: thermostability assay using SYPRO Orange. Format: physicochemical. As to the method:
The stability of ATB200 in acidic or neutral pH buffers was evaluated in a thermostability assay using SYPRO Orange, as the fluorescence of the dye increases when proteins denature. […] As summarized in Table 6, the addition of AT2221 increased the melting temperature (Tm) of ATB200 by nearly 10° C.

A word on the pKd: it is the Kd on a negative log10 scale, so that one unit is a factor of ten.

pKd: −log10 of the molar value. Marks after values point to notes of the source that are not given here.

T1 sequence (P11717 41-2491, species assumed): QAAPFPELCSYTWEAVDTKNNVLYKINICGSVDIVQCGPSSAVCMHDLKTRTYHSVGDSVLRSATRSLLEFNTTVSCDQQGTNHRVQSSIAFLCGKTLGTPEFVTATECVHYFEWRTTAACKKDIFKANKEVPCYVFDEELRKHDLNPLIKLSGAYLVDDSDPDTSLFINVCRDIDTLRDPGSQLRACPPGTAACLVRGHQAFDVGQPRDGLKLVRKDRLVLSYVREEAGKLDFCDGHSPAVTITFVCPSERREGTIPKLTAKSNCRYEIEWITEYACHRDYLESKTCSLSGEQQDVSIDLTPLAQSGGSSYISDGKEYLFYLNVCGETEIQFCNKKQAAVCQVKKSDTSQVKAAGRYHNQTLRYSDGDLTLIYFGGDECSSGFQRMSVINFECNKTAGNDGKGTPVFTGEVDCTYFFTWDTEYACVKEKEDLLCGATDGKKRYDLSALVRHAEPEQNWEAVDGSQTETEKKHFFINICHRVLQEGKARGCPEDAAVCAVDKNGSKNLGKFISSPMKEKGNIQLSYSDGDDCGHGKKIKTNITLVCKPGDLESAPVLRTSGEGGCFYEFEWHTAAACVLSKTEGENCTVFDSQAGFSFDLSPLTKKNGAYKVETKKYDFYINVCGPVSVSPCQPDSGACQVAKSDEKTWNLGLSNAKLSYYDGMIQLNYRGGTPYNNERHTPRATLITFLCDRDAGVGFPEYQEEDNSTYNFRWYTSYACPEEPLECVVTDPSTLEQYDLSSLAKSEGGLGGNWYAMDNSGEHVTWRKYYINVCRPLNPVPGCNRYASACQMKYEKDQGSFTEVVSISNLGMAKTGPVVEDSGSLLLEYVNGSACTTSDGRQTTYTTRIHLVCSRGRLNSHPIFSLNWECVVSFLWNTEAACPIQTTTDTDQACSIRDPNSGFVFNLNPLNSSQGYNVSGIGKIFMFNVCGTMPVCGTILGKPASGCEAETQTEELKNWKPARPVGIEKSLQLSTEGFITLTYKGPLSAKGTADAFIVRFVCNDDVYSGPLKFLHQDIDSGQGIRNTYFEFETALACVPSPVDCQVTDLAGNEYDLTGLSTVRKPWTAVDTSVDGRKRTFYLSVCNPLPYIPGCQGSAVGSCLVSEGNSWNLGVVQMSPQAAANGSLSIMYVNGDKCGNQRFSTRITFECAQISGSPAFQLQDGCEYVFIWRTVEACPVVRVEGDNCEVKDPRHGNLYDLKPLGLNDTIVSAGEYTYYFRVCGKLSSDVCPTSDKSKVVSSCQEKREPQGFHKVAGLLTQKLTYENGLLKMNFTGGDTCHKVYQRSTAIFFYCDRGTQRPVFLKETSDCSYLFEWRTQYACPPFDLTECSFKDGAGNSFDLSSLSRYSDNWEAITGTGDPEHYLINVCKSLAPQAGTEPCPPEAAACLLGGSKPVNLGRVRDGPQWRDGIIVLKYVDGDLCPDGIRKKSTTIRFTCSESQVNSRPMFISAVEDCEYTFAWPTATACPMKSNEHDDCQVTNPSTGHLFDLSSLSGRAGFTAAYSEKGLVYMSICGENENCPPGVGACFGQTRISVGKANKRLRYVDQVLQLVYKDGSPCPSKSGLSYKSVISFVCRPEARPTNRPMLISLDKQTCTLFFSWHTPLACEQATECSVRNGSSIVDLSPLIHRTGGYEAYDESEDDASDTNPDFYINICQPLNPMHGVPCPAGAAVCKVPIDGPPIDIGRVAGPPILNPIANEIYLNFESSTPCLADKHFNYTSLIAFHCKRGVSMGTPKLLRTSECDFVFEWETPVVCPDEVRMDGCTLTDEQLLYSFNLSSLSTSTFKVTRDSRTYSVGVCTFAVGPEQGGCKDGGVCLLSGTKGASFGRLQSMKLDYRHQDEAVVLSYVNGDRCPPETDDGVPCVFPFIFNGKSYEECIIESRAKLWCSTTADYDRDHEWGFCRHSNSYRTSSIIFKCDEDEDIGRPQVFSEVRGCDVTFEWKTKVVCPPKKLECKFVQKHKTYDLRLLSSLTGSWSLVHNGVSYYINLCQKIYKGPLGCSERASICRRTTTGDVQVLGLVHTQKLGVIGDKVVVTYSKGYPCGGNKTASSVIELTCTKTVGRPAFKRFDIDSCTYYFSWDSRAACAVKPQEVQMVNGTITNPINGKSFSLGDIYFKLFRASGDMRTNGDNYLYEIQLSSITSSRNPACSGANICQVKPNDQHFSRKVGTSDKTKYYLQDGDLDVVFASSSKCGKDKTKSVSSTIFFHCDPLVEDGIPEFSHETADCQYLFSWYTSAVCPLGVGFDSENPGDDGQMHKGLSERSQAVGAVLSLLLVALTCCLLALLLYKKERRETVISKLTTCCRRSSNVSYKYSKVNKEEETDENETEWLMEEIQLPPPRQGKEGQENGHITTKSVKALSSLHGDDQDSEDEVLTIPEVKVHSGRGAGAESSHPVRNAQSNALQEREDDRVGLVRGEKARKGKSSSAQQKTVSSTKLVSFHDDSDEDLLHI

As to “MYOZYME®: conventional rhGAA product containing alglucosidase alfa, marketed by Genzyme”, the “rhGAA that did not bind to the CIMPR” value with CIMPR [1] (flow through) stood at 73%. Moreover, in the data set with CIMPR [1], the “rhGAA that binds to the CIMPR (M6P eluted)” value is on record as 27%. For the same compound, in the data set on Gaa KO mice (single fibers, FIG. 17), the “lysosomes and autophagic buildup compared to vehicle-treated mice” value was “did not show any significant difference”.

For “ATB200: recombinant human acid α-glucosidase with a high content of N-glycans bearing mono-M6P and bis-M6P, produced from a GA-ATB200 CHO cell line”, the “binding to CIMPR compared with LUMIZYME” value with CIMPR [2] (CIMPR-coated plates, varying rhGAA concentrations (FIG. 10A)) is “significantly better”. The same compound gave a pKd in the data set with CIMPR [2] (M6P receptor plate binding assays) of 8.40 to 8.70. Moreover, the “internalization into normal and Pompe fibroblast cells compared with LUMIZYME” value in data set [3] (16-hr incubation, FIGS. 11A-11B) is on record as “internalized to a greater degree”. For the same compound, the “concentration that saturates cellular receptors” value in data set [3] (16-hr incubation, normal and Pompe fibroblasts) was “about 20 nM”. The “uptake efficiency constant (Kuptake)” value in data set [3] (extrapolated from uptake curves, FIG. 11C) is reported as 2-3 nm. For the same compound, the “Fibers with Autophagy Buildup” value in the data set with Gaa KO mice (Gaa KO mice) is 40-64%*. Also, in the data set with Gaa KO mice (single fibers, compared to Vehicle- or alglucosidase alfa-treated group), the “area / extent of autophagic buildup” value is “reduced to various degrees”. Also, the Tm in data set [4] (pH 5.2) is 67.3 °C; in data set [4] (pH 7.4), 56.2 °C; in data set [4] (pH 7.4 + 10 μM AT2221), 61.6 °C; in data set [4] (pH 7.4 + 30 μM AT2221), 62.9 °C; in data set [4] (pH 7.4 + 100 μM AT2221), 66.0 °C.

Take `CCCCN1C[C@H](O)[C@@H](O)[C@H](O)[C@H]1CO` [AT2221, (2R,3R,4R,5S)-1-butyl-2-(hydroxymethyl)piperidine-3,4,5-triol]: the “increase of the melting temperature (Tm) of ATB200 by addition of AT2221” value in data set [4] (pH 7.4) is ~10 °C. The “stabilization of ATB200 by AT2221” value in data set [4] (pH 7.4, FIG. 12) was “stabilized ATB200 at pH 7.4 in a concentration-dependent manner”.
